Patent US20130252987A1, “METHOD OF REGULATING PLASMA LIPOPROTEINS” (MCMASTER UNIVERSITY, priority 2010, published 2013)

How the values were obtained:
[1] = test system: microsomal triglyceride transfer protein (MTP); assay: MTP protein expression and activity assay; format: cell-based, human; settings: 50 ng/mL, 24 hours, HepG2 cells
Method: Cell monolayers were washed twice with ice-cold PBS and once with 5 ml of 1 mM Tris-HCl, pH 7.6, 1 mM EGTA, and 1 mM MgCl2 at 4° C. Cells were then incubated for 2 min at room temperature in 5 ml of ice-cold 1 mM Tris-HCl, pH 7.6, 1 mM EGTA, and 1 mM MgCl2. The buffer was aspirated, and 0.5 ml of the same buffer was added to cells. Cells were scraped and collected in ice-cold tubes, vortexed, and centrifuged (SW55 Ti rotor, 50,000 rpm, 10° C., 1 h), and supernatants were used for MTP assay using the MTP fluorometric activity assay kit (Chylos Inc., NY). The triglyceride transfer activity of MTP is presented as % transfer/h/mg protein.
Further tests were conducted to investigate mechanisms by which human resistin stimulated increased hepatocyte expression and secretion of apoB protein. […] It was first determined whether human resistin inhibits apoB degradation through the classic proteosome-dependent degradation pathway by adding the optimal dose of human resistin (50 ng/mL) to the proteosome-dependent inhibitor of apoB degradation, lactacystin, at the optimal dose and time (10 μM, 24 hours). An increase in the cellular expression and secretion of apoB in HepG2 cells with lactacystin was observed, confirming its apoB degradation properties (FIG. 8A.). […]

[2] = test system: human PCSK9; assay: PCSK9 siRNA studies in HepG2 cells; format: cell-based
Method: Four siRNAs targeting human PCSK9 synthesized by Qiagen (Qiagen, MD) were purchased and tested. The siRNAs were transfected into HepG2 cells at a final concentration of 10 nM, using HiPerFect transfection reagent (Qiagen, MD) at 0.5% final volume. The siRNA that produced the maximum decrease in PCSK9 mRNA and protein expression in HepG2 cells (70% knockdown by Western blot 24 hours post-transfection) was chosen for further experiments. As a negative control, HepG2 cells were transfected with a scrambled siRNA control vector in HiPerFect (both Qiagen, MD). As a positive control, HepG2 cells were transfected with siRNA targeting the constitutively expressed GAPDH gene, using HiPerFect (Qiagen, MD). Western blots against PCSK9 (Caymen Chemicals, MI), LDL receptor (Fitzgerald International, CA) and GAPDH (Sigma, Mo.) were done in control untreated HepG2 cells, cells transfected with the optimal PCSK9 siRNA (Qiagen, MD) and cells treated with human resistin (50 ng/mL) plus PCSK9 siRNA 24 hours post-transfection.
The extent of the role of PCSK9 in the resistin mediated reduction in hepatocyte LDL receptor levels was examined. […] PCSK9 protein levels in hepatocytes were next assessed in response to PCSK9 siRNA administration, with and without resistin. […]

[3] = test system: rat primary hepatocytes; assay: cellular apoB100 protein expression in primary rat hepatocytes; format: cell-based; settings: 50 ng/mL, 24 hours
Method: Primary Cells: Fresh wild-type rat and mouse primary heptaocytes were supplied by CellzDirect (Invitrogen, NC) in a 6-well collagen coated plate. Upon arrival, the storage media was removed and incubation media (Williams E Medium, phenol red free, with incubation supplement pack, Gibco, NC) was added according to manufactures' instructions. The cells were incubated at 37° C. with 5% CO2 for 16 hours prior to human resistin (50 ng/mL) treatment for 24 hours. Cryopreserved plateable human hepatocytes, metabolism qualified from multiple normal human donors, were supplied by CellzDirect (Invitrogen, NC). Upon arrival, the cells (4-8 million in 1 mL), according to the manufacturer's instruction, were added to 48 mL warmed thawing medium (CHRM® Medium, Invitrogen, NC) and centrifuged at 100×g for 10 min at room temperature. The pellet was re-suspended in 4 mL plating medium (Williams E Medium, phenol red free, with maintenance supplement pack and 10% FBS, Gibco, NC). The cells were stained by Trypan Blue (Sigma, Canada) and counted by a haemocytometer, followed by seeding 1×10^6 cells/well in a 6-well collagen coated plate (CellzDirect, Invitrogen, NC). The cells were incubated at 37° C. with 5% CO2 for 4 hours to allow the cells to adhere. The plating media was replaced and cell incubated for 16 hours prior to human resistin treatment for 24 hours. […]

B1: human resistin: recombinant lyophilized purified human resistin (Calbiochem); cysteine-rich cytokine, single 12 kDa band (protein)
chain: KTLCSMEEAINERIQEVAGSLIFRAISSIGLECQSVTSRGDLATCPRGFAVTGCTCGSACGSWDVRAETTCHCQCAGMDWTGARCCRVQP
MTP activity [1]: significant increases
cellular MTP protein expression [1]: significant increases
effect on LDL receptor elevation induced with PCSK9 siRNA ([2]; resistin 50 ng/mL plus PCSK9 siRNA): reversed
cellular PCSK9 levels compared with siRNA treatment alone ([2]; resistin plus PCSK9 siRNA): enhanced
increase in cellular apoB protein expression versus untreated control cells [3]: 40-50%
